Experiment: yeast display, Sf9 membrane polyspecificity reagent, FACS + sequencing; frameworks hold sequencing errors
How it was run: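 Genes from sorted yeast were amplified by colony PCR, read by MiSeq 2 × 250 sequencing and filtered on CDR length. These cells carried a synthetic nanobody library in Saccharomyces cerevisiae BJ5465 and were sorted by FACS into low and high (top ~1%) gates on anti-HA and streptavidin fluorescence. Polyreactivity is labelled according to the gate of origin.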

| Sequence | polyreactivity (PSR sort gate) |
| --- | --- |
| QVQLVESGGGLVQAGGSLRLSCAASGSIFYENTMGWYRQAPGKERELVASISGGGSTYADSVKGRFTISRDNAKHTVYLQMNSLKPEDTAVYYCNADSSTEYDYWGQGTQVTVSA | low polyreactivity |
| QVQLVESGGGLVQAGGSLRLSCAASGSIFYENVMGWYRQAPGKERELVAGISRSGGRTYYADSVKGRFTISRDNAKNTVYFQMNSLKPEDTAVYYCAALTPRNRYRKFDYWGQGTQVTVSS | high polyreactivity |
| QVQLVESGGGLVQAGGSLRLSCAASGSIFYEYAMGWYRQAPGKERELLASINRGGGSTYYADSVKGRFTISRDNAKNTVYLQMNSLKPEDTAVYYCAAQWKYRQSYLDYYWGQGTQVTVSS | low polyreactivity |
| QVQLVESGGGLVQAGGSLRLSCAASGSIFYEYAMGWYRQAPGKERELVAAINWDGGTYYADSVKGRFTISRDNAKNTVYLQMNSLKPEDTAVYYCAKPYDWGVYSQSDSDYWGQGTQVTVSS | low polyreactivity |
| QVQLVESGGGLVQAGGSLRLSCAASGSIFYFNAMGWYRQAPGKERELVAAINYSGGSTYYADSVKGRFTISRDNAKNTVYLQMNSLKPEDTAVYYCAAVTYFGWYPYRMEYWGQGTQVTVSS | high polyreactivity |
| QVQLVESGGGLVQAGGSLRLSCAASGSIFYFYAMGWYRQAPGKERELVAAITSGGSTYYADSVEGRFTISRDNAKNTVYLQMNSLKPEDTAVYYCAAQFYDLYHGTTYDYWGQGTQVTVSS | high polyreactivity |
| QVQLVESGGGLVQAGGSLRLSCAASGSIFYGNAMGWYRQAPGKERELVAAISSSGGSTYYADSVKGRFTISRDNAKNTVYLQMISLKPEDTAVYYCAADSTYYNSYDYWGQGTQVTVSS | low polyreactivity |
| QVQLVESGGGLVQAGGSLRLSCAASGSIFYGNAMGWYRQAPGKERELVAAITRGTRTYYADSVKGRFTISRDNAKNTVYLQMNSLKPEDTAVYYCAAYLYVPYRYKYDYWGQGAQVTVSS | high polyreactivity |
| QVQLVESGGGLVQAGGSLRLSCAASGSIFYGNAMGWYRQAPGKERELVAGISWSGGSTYYADSVKGRFTISRDNAKNSVFLQMNSLKPEETAVYYCAAVRWGSYTLSDDYWGQGTQLTVSS | low polyreactivity |
| QVQLVESGGGLVQAGGSLRLSCAASGSIFYGYTMGWYRQEPGKERELVAAIRKSGGSTNYADSVKGRFTISRDNAKNNVYLQMNSLKPEDTAVYYCAAAYYRGRGYYWGQGTQVTVSS | high polyreactivity |
| QVQLVESGGGLVQAGGSLRLSCAASGSIFYHNAMGWYRQAPGKERELVAAITWSGSTTYYADSVKGRFTISRDYAKNTVYLQMNSLKPEDTAVYYCNAGNRHGHYDYYWGQCTQVTVSS | low polyreactivity |
| QVQLVESGGGLVQAGGSLRLSCAASGSIFYHYSMGWYRQAPGKERELVAAITRSGGSTYYADSVKGRFTISRDNAKNTVFLQMNSLNPEDTAVYYSAKDPDSYNFLTSNWYDYWGLGTQVTVSS | low polyreactivity |
| QVQLVESGGGLVQAGGSLRLSCAASGSIFYIYAMVWYRQAPGKERELVATITRGGSSYADSVKGRFTISRDNAKNTVYFQMNSLIPEDTAVYYCAADVFKYWSQQTSTVYDYWGQGTQVTVSS | high polyreactivity |
| QVQLVESGGGLVQAGGSLRLSCAASGSIFYKYMGWNRQAPGKERELVAAISWSGGRTYYADSVKGRFTISRDNAKNTVYLQMNSLKPEDTAVYYCNRVVLWRIGDKAFEYWGQGTQVTVSS | high polyreactivity |
| QVQLVESGGGLVQAGGSLRLSCAASGSIFYLNAMGWYRMAPGKERELVATISNGGSTNYADSVKGRFTISRDNAKNTVYLQMNSLKPEDTAVYYCAAASGGTVVGEGDYWGQGTQVTVSS | low polyreactivity |
| QVQLVESGGGLVQAGGSLRLSCAASGSIFYLNAMGWYRQAPGKERELVAAITNGGSTYADSVKGRFTISRDNAKNTVYLQMNSLKPEDTAGYYCATRSWELGDYWGQGTQVTVSS | low polyreactivity |
| QVQLVESGGGLVQAGGSLRLSCAASGSIFYLYAMGLYRQAPGKERELVAAITSIGGSTYADSVKGRFTISRDNAKNTVYLQMNSLKPEDTAVYYCNTDEYPLTVQVQYYYWGQGTQVTVSS | low polyreactivity |
| QVQLVESGGGLVQAGGSLRLSCAASGSIFYLYAMGWYRPAPGKERELVARITIRGGSTYYADSVKGRFTISRDNAKNTVYLQMNSLKPEDTAVYYCAARRPYGDYDYWGQGTQVTVSS | high polyreactivity |
| QVQLVESGGGLVQAGGSLRLSCAASGSIFYLYAMGWYRQAPGKERELVAAISSGGSTNYADSVKGRFTISRDNAKNTVYLQMNSLKPEDTAVYYCAAGYKRLHWPKSDSFHGMYYWGQGTQVTVSS | low polyreactivity |
| QVQLVESGGGLVQAGGSLRLSCAASGSIFYLYAMGWYRQAPGKERELVAAISWSTSGTYYADSVKGRFTISRDNAKNTVYLQMNSLKPEDTAVYYCAADVYSPWWYDYWGQGTQVTVSS | high polyreactivity |
| QVQLVESGGGLVQAGGSLRLSCAASGSIFYLYAMGWYRQAPGKERELVAAITSIGGSTYADSVKGRFTISRDNAKNTVYLQMNSLKPEDTALYYCNTDEYPLTVQVQYYYWGQGTQVTVSS | low polyreactivity |
| QVQLVESGGGLVQAGGSLRLSCAASGSIFYLYAMGWYRQAPGKERELVAAITWRGGITNYADSVKGRFTISRDNAKNTVYLQMNSLKPEDTAVYYCAADPYRFLATELYYWGQGTQVTVSS | low polyreactivity |

| Sequence | polyreactivity (PSR sort gate) |
| --- | --- |
| QVQLVESGGGLVQAGGSLRLSCAASGSIFYLYAMGWYRQAPGKERELVASISSDGSTNYADSVKGRFTISRDNAKNTVYLQMNSLKPEDTAVYYCAADEGTGQASLSSNLYDYWGQGTQVTVSS | low polyreactivity |
| QVQLVESGGGLVQAGGSLRLSCAASGSIFYLYAMGWYRQAPGKERELVASISWGDSSTYYADSVKGRFTISRDNAKNTVYLQMNSLKPEDTAVYYCAADEYRQYALYDYWGQGTQVTVSS | low polyreactivity |
| QVQLVESGGGLVQAGGSLRLSCAASGSIFYLYAMGWYRQAPGKERELVATITASGGSTNYADSVKGRFTISRDNAKNTVYLQMNSLKPEDTAVYYCAAEYYYLVYYYKEIVAYDYWGQGTQVTVSS | high polyreactivity |
| QVQLVESGGGLVQAGGSLRLSCAASGSIFYLYAMGWYRQAPGKETEVVAAITSIGGSTYADSVKGRFTISRDNAKNTVYLQLNSLKPDDTAVYYCNTDVYPLTVQVQYYYWGQGTQVTVSS | low polyreactivity |
| QVQLVESGGGLVQAGGSLRLSCAASGSIFYLYTMGRYRQAPGKERELVAAITNGGSTDYADSVKGRFTISRDNAKNTVYLQMNSLKPEDTAVYYCNADPRYPVDELEYWVTTPYDYWGQGTQVTVSS | low polyreactivity |
| QVQLVESGGGLVQAGGSLRLSCAASGSIFYLYTMGWYRQAPGKERELVASITYSGGTYYADSVKGRFTISRDNAKNTVYLQINSLKPEDTAVYYCNADASYYLDDEYDYWGQGTQVTVSS | low polyreactivity |
| QVQLVESGGGLVQAGGSLRLSCAASGSIFYNAMGWYRQAPGKERELVASISWSGGTSTYYADSVKGRFTISRDNAKNTVYLQMNSLKPEDTAVYYCAKASRYSSYWMYYWGQGTQVTVSS | high polyreactivity |
| QVQLVESGGGLVQAGGSLRLSCAASGSIFYNNAMGWYRQAPGKERELVATIRRSGGSTYYADSVKGRFTISRDNAKNTVYLQMNSLKPEDTAVYYCAADYTPDLLSKVDYWGQGTQVTVSS | low polyreactivity |
| QVQLVESGGGLVQAGGSLRLSCAASGSIFYNYAMGWYRQAPGKEREFVAAISRSGGSTYYADSVKGRFTISRDNAKNTVYLQMNSLKPEDSAVYYCAASTRYSAFYPYGYWGQGTQVTVSS | high polyreactivity |
| QVQLVESGGGLVQAGGSLRLSCAASGSIFYNYAMGWYRQAPGKERELVAAISGSGGSTYYADSVKGRFTISRDNAKNTVYGQMNSLKPEDTAVYYCSTSGPQYYSRNFDYWGQGTQVTVSS | low polyreactivity |
| QVQLVESGGGLVQAGGSLRLSCAASGSIFYPNAMGWYRQAPGKERELVAAINGGGSTYYADSVKGRFTISRDNAKNTVYLQMNSLKPEDTAVYYCAADSNDVYYDTPSYDYWGQGTQVTVSS | low polyreactivity |
| QVQLVESGGGLVQAGGSLRLSCAASGSIFYPNAMGWYRQAPGKERELVAVITGGATTYYADSVKGRFTISRDNAKNTVYLQMNSLKPEDTAVYYCAADSAENVYRGYYWGQGTQVTVSS | low polyreactivity |
| QVQLVESGGGLVQAGGSLRLSCAASGSIFYPNAMGWYRQAPGKESELVAAISSSGGTNYADSVKGRFTISRDNAKNTVYLQMNSLKPEDTAVYYCAADIRSNRLYDGGYWGQGTQVTVSS | low polyreactivity |
| QVQLVESGGGLVQAGGSLRLSCAASGSIFYPYAMGWYRKAPGKERELVASITINDGSTYYADSVKGRFTISRDNAKHTFYLPMNRLIQEDPAVYYCNVDPVPGFGSVYEYWGQGTQVTVSS | low polyreactivity |
| QVQLVESGGGLVQAGGSLRLSCAASGSIFYPYAMGWYRQAPGKERELVAAIRNGGSTYYADSVKGRFTISRDNAKNTVYLHMNSLKPEDTAVYYCAASVRRRHPFEYWGQGTQVTVSS | high polyreactivity |
| QVQLVESGGGLVQAGGSLRLSCAASGSIFYPYAMGWYRQAPGKERELVAAISWSGTRTYYADSVKGRFTISRDNAKNTVYLQMNSLKPEDTAVYYCAAYLPGYREQVDTNSWGQGTQVTVSS | low polyreactivity |
| QVQLVESGGGLVQAGGSLRLSCAASGSIFYQNARGWYRQAPGKERELVAAISISDGSTYYADSVNGRFTISRDNAKNTVYLQMNILKPEDTAVYYCNADSLYYDPYDYWGQGTQVTVSS | low polyreactivity |
| QVQLVESGGGLVQAGGSLRLSCAASGSIFYQYAMGWYRQAPGKERELVAAISVRAGITYYADSVKGRFTISRDNAKNTVYLQMNSLKPEETAVYYGAKDHWTTSYDEGDYWGQGTQVTVSS | low polyreactivity |
| QVQLVESGGGLVQAGGSLRLSCAASGSIFYRNAMGCSRQARGKERELVAAISSSGTRTYYADSVKGRFTISRDNAKNTVYLQMNILKPEDTAVYYCAAGVVLWYRRRYYYWGQGTQVTVSS | high polyreactivity |
| QVQLVESGGGLVQAGGSLRLSCAASGSIFYRNAMGWYRQAPGKERELVAAISWSGASTSYADSVKGRFTISPDNAKNTVYLQMNSLIPDATAVYYCNAGKYAYLWLKLFAPKLDYWGQGTQVTVSS | low polyreactivity |
| QVQLVESGGGLVQAGGSLRLSCAASGSIFYRNAMGWYRQATGKERELVAAISASGGSTYYADSVKGRFTISRDNAKNTVYLQINSLKPEDTAVYYCAVEYRKSRSYYPYYYWGQGTQVTVSS | high polyreactivity |

Source: the nanobody polyreactivity screen of Harvey et al. (2022)
